Measurements from publication PMC4110399 (Current Biology, 2014).

Columns and labels:
[1] = biological target: recombinant VPS35/VPS29 complex (wild type) (UniProt Q96QK1 1-796; Q9UBQ0 1-182); test: ITC; FAM21 R20-21 titrated into the VPS35/VPS29 complex; three experiments for each complex with two independently prepared protein samples; global fitting with SEDPHAT; conditions: both partners purified
[2] = biological target: recombinant VPS35(D620N)/VPS29 complex (UniProt Q96QK1 1-796; Q9UBQ0 1-182, D620N); test: as above; conditions: both partners purified

Binder	Kd [1] [µM]	stoichiometry N [1]	Kd [2] [µM]
FAM21 R20-21 fragment (domain or fragment, Limits not printed (construct is in cited ref 16); taken as the C-terminal tail spanning LFa motifs 20-21. The LFa 20/21 positions are recalled from the entry's annotation and not shown in the …) KSKKKVEAKSIFDDDMDDIFSTGIQAKTTKPKSRSAQAAPEPRFEHKVSNIFDDPLNAFGGQ	2.4	2 R20-21 per VPS35/VPS29 (by the order of the sentence)	–
FAM21 R20-21 fragment (domain or fragment) KSKKKVEAKSIFDDDMDDIFSTGIQAKTTKPKSRSAQAAPEPRFEHKVSNIFDDPLNAFGGQ	–	–	4.6
